Experimental data: US20260001954A1 (Genentech, published 2026)

Assays:
[1] = target: CD3 on T cells of human peripheral blood mononuclear cells (PBMCs) (human, UniProt P07766 23-207); assay: cell-based or functional assay
[2] = target: T1, CD3 (cluster of differentiation 3) (UniProt P07766 23-126); assay: method not stated; monovalent KD used to calculate CD3 receptor occupancy; monovalent KD, used for CD3 receptor occupancy
T1 construct: also called CD3 antigen
T1 sequence (P07766 23-126): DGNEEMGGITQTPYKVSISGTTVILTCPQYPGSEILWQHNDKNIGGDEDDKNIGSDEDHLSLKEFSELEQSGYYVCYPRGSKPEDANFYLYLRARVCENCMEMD

Chain of CD3 on T cells of human peripheral blood mononuclear cells (PBMCs) (P07766 23-207): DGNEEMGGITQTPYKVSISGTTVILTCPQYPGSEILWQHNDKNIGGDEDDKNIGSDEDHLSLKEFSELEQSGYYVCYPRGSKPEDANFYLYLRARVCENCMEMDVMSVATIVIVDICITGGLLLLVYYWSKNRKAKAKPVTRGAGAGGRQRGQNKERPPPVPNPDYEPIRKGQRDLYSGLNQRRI

B1: cevostamab (bispecific antibody, human IgG1, kappa, N297G)
heavy 1: not shown
light 1: DIQMTQSPSSLSASVGDRVTITCKASQDVRNLVVWFQQKPGKAPKLLIYSGSYRYSGVPSRFSGSGSGTDFTLTISSLQPEDFATYYCQQHYSPPYTFGQGTKVEIKRTVAAPSVFIFPPSDEQLKSGTASVVCLLNNFYPREAKVQWKVDNALQSGNSQESVTEQDSKDSTYSLSSTLTLSKADYEKHKVYACEVTHQGLSSPVTKSFNRGEC
heavy 2: EVQLVQSGAEVKKPGASVKVSCKASGFTFTSYYIHWVRQAPGQGLEWIGWIYPENDNTKYNEKFKDRVTITADTSTSTAYLELSSLRSEDTAVYYCARDGYSRYYFDYWGQGTLVTVSSASTKGPSVFPLAPSSKSTSGGTAALGCLVKDYFPEPVTVSWNSGALTSGVHTFPAVLQSSGLYSLSSVVTVPSSSLGTQTYICNVNHKPSNTKVDKKVEPKSCDKTHTCPPCPAPELLGGPSVFLFPPKPKDTLMISRTPEVTCVVVDVSHEDPEVKFNWYVDGVEVHNAKTKPREEQYGSTYRVVSVLTVLHQDWLNGKEYKCKVSNKALPAPIEKTISKAKGQPREPQVYTLPPSREEMTKNQVSLSCAVKGFYPSDIAVEWESNGQPENNYKTTPPVLDSDGSFFLVSKLTVDKSRWQQGNVFSCSVMHEALHNHYTQKSLSLSPGK
light 2: not shown
notes: Humanized full-length non-glycosylated IgG1 kappa, knobs-into-holes; also called BFCR4350A; RO7187797
[1]
  50% effective concentration (EC50) for T-cell activation in the in vitro human PBMC: MOLP-2 co-culture: 58.8 ng/mL
[2]
  Kd: 2.6 nM
